Reference: paper PMC9482650, “Quantitative fragmentomics allow affinity mapping of interactomes” (Nature Communications, 2022)

Assays:
Assay in all cases: holdup assay
Design in all cases: key: below the threshold = too weak to quantify, mostly under pKd 3.1 to 4
Conditions in all cases: plain residues with an end cap or a label only (N-terminal biotin on a linker: ttds)
PDZD7_1, Q9H5P4 = target: T1, PDZD7_1, Q9H5P4
T1 sequence (Q9H5P4 81-178, limits assumed, looked up): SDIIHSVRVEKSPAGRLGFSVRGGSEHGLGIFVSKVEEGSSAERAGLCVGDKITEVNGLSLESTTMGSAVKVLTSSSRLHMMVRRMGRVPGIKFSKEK

PARD6G, Q9BYG4 = target: T2, PARD6G, Q9BYG4
T2 sequence (Q9BYG4 153-261, limits assumed, looked up): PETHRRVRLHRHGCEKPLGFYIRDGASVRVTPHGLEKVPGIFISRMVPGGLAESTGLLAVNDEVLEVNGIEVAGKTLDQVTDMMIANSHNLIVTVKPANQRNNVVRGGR

PDZD9, Q8IXQ8 = target: PDZD9, Q8IXQ8
Chain of PDZD9, Q8IXQ8 (Q8IXQ8 23-120): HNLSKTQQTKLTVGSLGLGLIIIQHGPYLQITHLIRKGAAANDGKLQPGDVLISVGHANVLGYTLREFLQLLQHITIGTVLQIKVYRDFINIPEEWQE

PREX2_2, Q70Z35 = target: T3, PREX2_2, Q70Z35
T3 sequence (Q70Z35 672-764, limits assumed, looked up): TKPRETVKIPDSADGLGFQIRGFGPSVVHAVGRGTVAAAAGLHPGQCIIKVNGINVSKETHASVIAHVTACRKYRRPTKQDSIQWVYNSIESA

USH1C_2, Q9Y6N9 = target: T4, USH1C_2, Q9Y6N9
T4 sequence (Q9Y6N9 206-303, limits assumed, looked up): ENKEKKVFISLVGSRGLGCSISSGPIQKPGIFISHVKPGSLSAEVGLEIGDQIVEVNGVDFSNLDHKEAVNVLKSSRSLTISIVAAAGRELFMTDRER

MAGI3_5, Q5TCQ9 = target: MAGI3_5, Q5TCQ9
Chain of MAGI3_5, Q5TCQ9 (Q5TCQ9 847-941): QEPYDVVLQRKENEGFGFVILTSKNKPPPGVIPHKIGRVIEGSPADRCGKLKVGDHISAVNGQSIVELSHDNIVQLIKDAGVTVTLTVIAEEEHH

MPDZ_11, O75970 = target: T5, MPDZ_11, O75970
T5 sequence (O75970 1720-1817, limits assumed, looked up): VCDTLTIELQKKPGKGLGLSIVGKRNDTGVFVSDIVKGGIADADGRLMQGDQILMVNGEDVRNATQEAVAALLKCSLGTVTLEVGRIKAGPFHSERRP

DLG5_2, Q8TDM6 = target: DLG5_2, Q8TDM6
Chain of DLG5_2, Q8TDM6 (Q8TDM6 714-800): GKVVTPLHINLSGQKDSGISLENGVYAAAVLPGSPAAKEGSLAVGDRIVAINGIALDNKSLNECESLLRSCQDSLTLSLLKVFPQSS

MAGI3_6, Q5TCQ9 = target: MAGI3_6, Q5TCQ9
Chain of MAGI3_6, Q5TCQ9 (Q5TCQ9 1014-1103): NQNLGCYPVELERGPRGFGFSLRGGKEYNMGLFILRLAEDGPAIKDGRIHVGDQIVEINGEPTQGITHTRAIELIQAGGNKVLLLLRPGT

Q96JY6 = target: Q96JY6
GIPC1, O14908 = target: T6, GIPC1, O14908
T6 sequence (O14908 128-223, limits assumed, looked up): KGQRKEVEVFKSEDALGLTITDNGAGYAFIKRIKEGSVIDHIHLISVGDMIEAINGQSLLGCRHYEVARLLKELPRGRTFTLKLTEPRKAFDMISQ

CARD14, Q9BXL6 = target: CARD14, Q9BXL6
Chain of CARD14, Q9BXL6 (Q9BXL6 558-663): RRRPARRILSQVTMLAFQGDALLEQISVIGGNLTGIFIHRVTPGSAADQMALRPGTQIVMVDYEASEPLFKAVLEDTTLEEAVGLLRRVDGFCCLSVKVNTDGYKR

Q8TB45 = target: Q8TB45
MAGI2_1, Q86UL8 = target: T7, MAGI2_1, Q86UL8
T7 sequence (Q86UL8 12-111, limits assumed, looked up): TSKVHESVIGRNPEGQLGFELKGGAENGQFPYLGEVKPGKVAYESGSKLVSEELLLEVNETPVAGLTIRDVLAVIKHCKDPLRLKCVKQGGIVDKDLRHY

APBA3_2, O96018 = target: T8, APBA3_2, O96018
T8 sequence (O96018 480-570, limits assumed, looked up): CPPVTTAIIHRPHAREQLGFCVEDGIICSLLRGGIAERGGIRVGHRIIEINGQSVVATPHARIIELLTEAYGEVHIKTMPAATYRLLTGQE

Q96FS4 = target: Q96FS4
NHERF3_2, Q5T2W1 = target: T9, NHERF3_2, Q5T2W1
T9 sequence (Q5T2W1 129-225, limits assumed, looked up): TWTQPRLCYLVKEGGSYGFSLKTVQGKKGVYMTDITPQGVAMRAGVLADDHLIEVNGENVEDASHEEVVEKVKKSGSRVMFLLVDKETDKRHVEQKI

PDZD2_6, O15018 = target: T10, PDZD2_6, O15018
T10 sequence (O15018 2745-2839, limits assumed, looked up): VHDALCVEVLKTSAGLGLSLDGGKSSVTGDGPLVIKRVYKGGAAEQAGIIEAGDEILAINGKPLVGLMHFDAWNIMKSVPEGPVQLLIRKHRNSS

PARD3_1, Q8TEW0 = target: PARD3_1, Q8TEW0
Chain of PARD3_1, Q8TEW0 (Q8TEW0 264-372): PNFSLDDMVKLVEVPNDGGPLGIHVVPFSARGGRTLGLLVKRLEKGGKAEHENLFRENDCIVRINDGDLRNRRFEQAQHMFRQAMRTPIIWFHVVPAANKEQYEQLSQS

MAGI1_5, Q96QZ7 = target: MAGI1_5, Q96QZ7
Chain of MAGI1_5, Q96QZ7 (Q96QZ7 986-1098): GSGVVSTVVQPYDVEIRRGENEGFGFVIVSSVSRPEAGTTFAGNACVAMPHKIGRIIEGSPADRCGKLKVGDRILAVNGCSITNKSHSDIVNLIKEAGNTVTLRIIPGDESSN

SCRIB_4, Q14160 = target: SCRIB_4, Q14160
Chain of SCRIB_4, Q14160 (Q14160 1095-1204): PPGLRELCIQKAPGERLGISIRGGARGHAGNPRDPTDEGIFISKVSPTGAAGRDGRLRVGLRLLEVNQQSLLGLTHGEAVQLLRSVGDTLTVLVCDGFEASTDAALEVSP

PDZD2_3, O15018 = target: T11, PDZD2_3, O15018
T11 sequence (O15018 581-682, limits assumed, looked up): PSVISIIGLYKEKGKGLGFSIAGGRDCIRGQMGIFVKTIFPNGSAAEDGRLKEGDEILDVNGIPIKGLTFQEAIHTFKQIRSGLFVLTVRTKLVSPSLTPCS

O00233 = target: O00233
Q9NPB6 = target: Q9NPB6
LIMK1, P53667 = target: LIMK1, P53667
Chain of LIMK1, P53667 (P53667 155-268): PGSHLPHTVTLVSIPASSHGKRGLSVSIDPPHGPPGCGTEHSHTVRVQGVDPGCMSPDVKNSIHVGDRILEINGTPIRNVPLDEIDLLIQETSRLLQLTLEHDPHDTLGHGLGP

SHROOM3, Q8TF72 = target: T12, SHROOM3, Q8TF72
T12 sequence (Q8TF72 20-120, limits assumed, looked up): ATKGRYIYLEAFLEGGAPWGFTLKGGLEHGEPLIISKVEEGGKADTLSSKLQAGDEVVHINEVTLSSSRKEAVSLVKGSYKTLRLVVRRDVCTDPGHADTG

Measured: pKd

PSRDRKETSI [RALBP1, Q15311]
4.26: DLG5_2, Q8TDM6
3.78: GIPC1, O14908
3.74: MAGI2_1, Q86UL8
4.16: LIMK1, P53667
below the threshold: all other assays above
